Assay results reported in paper PMC9292375, “Structural basis of an epitope tagging system derived from Haloarcula marismortui bacteriorhodopsin I D94N and its monoclonal antibody GD‐26” (The Febs Journal, 2021).

Legend:
Assay in all cases: ITC; synthetic peptide in the syringe titrated into GD-26 Fab or GD-26 IgG (10 μM) in the cell; 25 °C; 50 mM Tris, 150 mM NaCl, pH 7.5; one-set-of-sites model
Conditions in all cases: both partners purified
[1] = biological target: T1, TD peptide C2 (Asp8 and Asp9 removed) (Haloarcula marismortui (strain ATCC …))
T1 construct: TD peptide residues 1-7 (Asp8 and Asp9 removed); numbers count on: the TD peptide; source: synthetic peptide
T1 chain: GTGATPA

TD peptide A7E = biological target: T2, TD peptide A7E (A7E (stands in the printed letters))
T2 construct: TD peptide (C terminus of HmBRI) with A7E; numbers count on: the TD peptide; source: synthetic peptide
T2 chain: GTGATPEDD

TD peptide A7T = biological target: T3, TD peptide A7T (A7T (stands in the printed letters))
T3 construct: TD peptide (C terminus of HmBRI) with A7T; numbers count on: the TD peptide; source: synthetic peptide
T3 chain: GTGATPTDD

[2] = biological target: T4, TD peptide C1 (Asp9 removed) (Haloarcula marismortui (strain ATCC …))
T4 construct: TD peptide residues 1-8 (Asp9 removed); numbers count on: the TD peptide; source: synthetic peptide
T4 chain: GTGATPAD

TD peptide G1M = biological target: T5, TD peptide G1M (G1M (stands in the printed letters))
T5 construct: TD peptide (C terminus of HmBRI) with G1M; numbers count on: the TD peptide; source: synthetic peptide
T5 chain: MTGATPADD

TD peptide A7W = biological target: T6, TD peptide A7W (A7W (stands in the printed letters))
T6 construct: TD peptide (C terminus of HmBRI) with A7W; numbers count on: the TD peptide; source: synthetic peptide
T6 chain: GTGATPWDD

[3] = biological target: T7, TD peptide N2 (Gly1 and Thr2 deleted) (Haloarcula marismortui (strain ATCC …))
T7 construct: TD peptide residues 3-9 (Gly1 and Thr2 deleted); numbers count on: the TD peptide; source: synthetic peptide
T7 chain: GATPADD

TD peptide P6A = biological target: T8, TD peptide P6A (P6A (stands in the printed letters))
T8 construct: TD peptide (C terminus of HmBRI) with P6A; numbers count on: the TD peptide; source: synthetic peptide
T8 chain: GTGATAADD

TD peptide P6G = biological target: T9, TD peptide P6G (P6G (stands in the printed letters))
T9 construct: TD peptide (C terminus of HmBRI) with P6G; numbers count on: the TD peptide; source: synthetic peptide
T9 chain: GTGATGADD

TD peptide A7R = biological target: T10, TD peptide A7R (A7R (stands in the printed letters))
T10 construct: TD peptide (C terminus of HmBRI) with A7R; numbers count on: the TD peptide; source: synthetic peptide
T10 chain: GTGATPRDD

TD peptide D9N = biological target: T11, TD peptide D9N (D9N (stands in the printed letters))
T11 construct: TD peptide (C terminus of HmBRI) with D9N; numbers count on: the TD peptide; source: synthetic peptide
T11 chain: GTGATPADN

TD peptide A7P = biological target: T12, TD peptide A7P (A7P (stands in the printed letters))
T12 construct: TD peptide (C terminus of HmBRI) with A7P; numbers count on: the TD peptide; source: synthetic peptide
T12 chain: GTGATPPDD

[4] = biological target: T13, TD peptide (GTGATPADD), peptide V from the C terminus of HmBRI D94N (Haloarcula marismortui HmBRI C terminus …)
T13 construct: nine residues at the C terminus of Haloarcula marismortui bacteriorhodopsin I (HmBRI); residue numbers 1-9 count on: the TD peptide; also called TD tag; wild-type TD peptide; source: synthetic peptide
T13 chain: GTGATPADD

TD peptide P6F = biological target: T14, TD peptide P6F (P6F (stands in the printed letters))
T14 construct: TD peptide (C terminus of HmBRI) with P6F; numbers count on: the TD peptide; source: synthetic peptide
T14 chain: GTGATFADD

binding result [1]: no binding | Kd (TD peptide A7E): 46.4 nM | Kd (TD peptide A7T): 449 nM | Kd [2]: 273 nM | Kd (TD peptide G1M): 46.5 nM | Kd (TD peptide A7W): 34.4 nM | Kd [3]: 548 nM | Kd (TD peptide P6A): 140 nM | Kd (TD peptide P6G): 892 nM | Kd (TD peptide A7R): 171 nM | Kd (TD peptide D9N): 132 nM | Kd (TD peptide A7P): 1040 nM | Kd [4]: 12 nM | Kd (TD peptide P6F): 78.2 nM
B1: GD-26 Fab (antigen-binding fragment of monoclonal antibody GD-26) (Fab, V domains shown)
VH: QVQLRQSGPELVKPGASVKMSCRASGYTFTNYNIHWVRQRPGQGLEWIGWIYPVDGTTKYNEKFKDKTTLTSDKSSSTAYMSLSGLTSEDSAIYFCARGLDNWGQGTSVTVSS
VL: DVVLTQTPLSLSVTIGQPASISCRSSQRLLYSNGKTYLNWFQQRPGQAPKYLMFQVSKLGPGIPARFSGSGSETDFTLKISRVEAEDLGVYYCFQGTFFPHTFGGGTKLEMK
notes: Fab heavy chain of GD-26; whole chain in PDB 7DOH; light chain of GD-26; the Fab was secreted; source: Expi293F, transient co-transfection, secreted; purified (HisTrap Excel, Superdex 200 gel filtration)
